According to US20180320179A1, “LANOSTEROL 14-ALPHA DEMETHYLASE (CYP51) NUCLEIC ACID MOLECULES THAT CONTROL PATHOGENS” (Dow AgroSciences LLC, priority 2017, published 2018):

B1: MgCyp51-T8: dsRNA tile of Zymoseptoria tritici Cyp51, 242 bp, location 1151-1392 (nucleic acid, listed as Zymoseptoria tritici)
chain: TTCTGCGCAAGGTCAAGTCTCCCATGCCCATCGAAGGTACGGCATACGTCATTCCAACCACCCACACTCTTCTGGCCGCTCCGGGCACAACGAGCCGCATGGACGAGCACTTTCCCGACTGCCTCCATTGGGAGCCGCATCGATGGGACGAGAGCCCGTCCGAGAAATACAAGCACCTGTCCCCGACGACTGCCCTAGGAAGCATCGCCGAGGAGAAAGAAGACTATGGCTACGGCCTGGTA
B2: MgCyp51-T5: dsRNA tile of Zymoseptoria tritici Cyp51, 133 bp, location 1316-1448 (nucleic acid, listed as Zymoseptoria tritici)
chain: AATACAAGCACCTGTCCCCGACGACTGCCCTAGGAAGCATCGCCGAGGAGAAAGAAGACTATGGCTACGGCCTGGTAAGCAAGGGCGCGGCGTCGCCATACTTACCCTTTGGTGCGGGACGACACAGATGTAT
B3: MgCyp51-T11: dsRNA tile of Zymoseptoria tritici Cyp51, 172 bp, location 775-946 (nucleic acid, listed as Zymoseptoria tritici)
chain: TCCGAGACATACATGTCGATCATTCAGAAGAGACGAGAGTCCAAAACGGGCGAACATGAGGAAGACATGATCCACAACTTGATGCAGTGCAAATACAAGGACGGCAATGCCATTCCCGACAAGGAGATTGCTCATATGATGATTGCGCTGCTCATGGCCGGCCAGCACTCTT
B4: YFP: non-target dsRNA control (YFP, yellow fluorescent protein coding region) (nucleic acid)
chain: TGTAGAAATCCTTCAGCTCGGGGCCGTACTTGGCGAAGCACTGGGCGCCGTAGGTCAGGGTGGTCACCAGGGTGCTCCAGGGCACGGGCACATCGCCGGTGGTGCAGATGAACTGGGCATCCACCTTGCCCACGCTGGCATCGCCGTAGCCCTTGCCGCGGATGCTGAAGGTGTGGCCATCCACATTGCCCTCCATCTCCACCACGTAGGGGATCTTGCCGTGGAACAGCAGGGCGCCGCTGGAGCCCAT
modifications: double-stranded RNA; synthesized partial coding region
B5: MgCyp51-T12: dsRNA tile of Zymoseptoria tritici Cyp51, 138 bp, location 1377-1514 (nucleic acid, listed as Zymoseptoria tritici)
chain: TGGCTACGGCCTGGTAAGCAAGGGCGCGGCGTCGCCATACTTACCCTTTGGTGCGGGACGACACAGATGTATCGGCGAGCAATTCGCGTACGTGCAATTGCAGACCATTACAGCGACGATGGTTCGCGATTTCAAGTT
B6: MgCyp51-T13: dsRNA tile of Zymoseptoria tritici Cyp51, 119 bp, location 1517-1635 (nucleic acid, listed as Zymoseptoria tritici)
chain: ACAATGTGGATGGCAGCGACAACGTGGTGGGTACGGATTACAGCAGTTTGTTCAGCCGGCCGCTGTCGCCGGCAGTAGTAAAGTGGGAGAGGAGGGAGGAGAAGGAGGAGAAGAACTGA
modifications: long dsRNA tile, purified, chemistry not given here
B7: MgCyp51-T6: dsRNA tile of Zymoseptoria tritici Cyp51, 280 bp, location 881-1160 (nucleic acid, listed as Zymoseptoria tritici)
chain: ATGCCATTCCCGACAAGGAGATTGCTCATATGATGATTGCGCTGCTCATGGCCGGCCAGCACTCTTCATCTGCGACCGAGTCCTGGATCACTCTCCGCCTCGCATCCCGCCCCGACATCCAAGACGAACTCCTCCAAGAACAAAAGGATATGCTCGGTGTGAACGCCGACGGCAGTATCAAGGAGCTCACATACGCCAACCTCTCGAAACTCACCCTCCTCAATCAAGTCGTCAAAGAAACCCTTCGTATTCACGCTCCAATCCACTCCATTCTGCGCAA

Columns and labels:
[1] = tested on: Zymoseptoria tritici (SEPTTR-184); test: Cyp51 dsRNA tile (fragment) foliar application bioassay (Example 6); assay type: in vivo; conditions: for ED50 (ppm) SEPTTR-184 1DP / ED80 (ppm) SEPTTR-184 1DP / Disease Control (%) SEPTTR-184 1DP: 1 day protectant; for ED50 (ppm) SEPTTR-184 1DP / ED80 (ppm) SEPTTR-184 1DP / ED50 (ppm) SEPTTR-184 3DC / ED80 (ppm) SEPTTR-184 3DC: calculated from disease control; for Disease Control (%) SEPTTR-184 1DP / Disease Control (%) SEPTTR-184 3DC: average of 2 trials; for ED50 (ppm) SEPTTR-184 3DC / ED80 (ppm) SEPTTR-184 3DC / Disease Control (%) SEPTTR-184 3DC: 3 days curative
Protocol: The 200 ppm concentration for each treatment was prepared by adding the calculated volume of the corresponding dsRNA solution in TE buffer. […] A non-target dsRNA control (YFP), a TE/phosphate buffer control, disease pressure control, and clean plant control were included.
(§1) These plants were inoculated with an aqueous spore suspension of Zymoseptoria tritici either prior to or after fungicidal treatments. After inoculation the plants were kept in 100% relative humidity to allow spores to germinate and infect the leaves. The plants were then transferred to a greenhouse set at 20° C. until disease developed.

[2] = tested on: Zymoseptoria tritici (SEPTTR US-184); test: Cyp51 dsRNA foliar application bioassay on wheat seedlings, isolate US-184 (Example 5); assay type: in vivo; conditions: compared to the non-treated control; isolate not given
Protocol: RNAi (dsRNA) fungicidal solutions were prepared in TE buffer (pH 8.0), which were then mixed with 9 volumes of phosphate buffer (pH 7.5) containing an adjuvant. The fungicidal solutions were applied to wheat seedlings using an automated booth sprayer to run-off. All sprayed plants were allowed to air dry prior to further handling.
The following served as controls: adjuvant in phosphate buffer control, disease pressure control (untreated), and clean plant control (negative control).
as §1

Molecule | ED50 (ppm) SEPTTR-184 1DP [1] [ppm] | ED80 (ppm) SEPTTR-184 1DP [1] [ppm] | Disease Control (%) SEPTTR-184 1DP ([1]; rate 3.125 ppm) [%] | Disease Control (%) SEPTTR-184 1DP ([1]; rate 12.5 ppm) [%] | Disease Control (%) SEPTTR-184 1DP ([1]; rate 50 ppm) [%] | Disease Control (%) SEPTTR-184 1DP ([1]; rate 200 ppm) [%] | ED50 (ppm) SEPTTR-184 3DC [1] [ppm] | ED80 (ppm) SEPTTR-184 3DC [1] [ppm] | Disease Control (%) SEPTTR-184 3DC ([1]; rate 3.125 ppm) [%] | Disease Control (%) SEPTTR-184 3DC ([1]; rate 12.5 ppm) [%] | Disease Control (%) SEPTTR-184 3DC ([1]; rate 50 ppm) [%] | Disease Control (%) SEPTTR-184 3DC ([1]; rate 200 ppm) [%] | control of Septoria leaf blotch on wheat seedlings [2]
B1 | 5.208 | >200 | 46 | 64 | 65 | 74 | <3.125 | >200 | 61 | 68 | 73 | 73 | control Septoria leaf blotch
B2 | <3.125 | >200 | 61 | 66 | 70 | 77 | <3.125 | >200 | 52 | 64 | 68 | 78 | control Septoria leaf blotch
B3 | <3.125 | >200 | 63 | 61 | 58 | 61 | 12.500 | >200 | 47 | 50 | 55 | 42 | –
B4 | >200 | >200 | 0 | 15 | 23 | 27 | >200 | >200 | 15 | 19 | 19 | 35 | –
B5 | <3.125 | >200 | 59 | 64 | 63 | 64 | 24.219 | >200 | 36 | 45 | 61 | 71 | –
B6 | <3.125 | >200 | 58 | 59 | 70 | 74 | 4.167 | >200 | 45 | 54 | 64 | 59 | –
B7 | 3.125 | >200 | 50 | 55 | 71 | 74 | 29.167 | >200 | 48 | 46 | 55 | 61 | control Septoria leaf blotch
